# Reference: paper PMC3319784
# B1: first Sam domain of Odin (Odin-Sam1) (domain or fragment)
# chain: ISGLRTLEQSVGEWLESIGLQQYESKLLLNGFDDVHFLGSNVMEEQDLRDIGISDPQHRRKLLQAARSLPKVKALGYDGN
# Experiments:
# [1] = molecular target: first Sam domain of Odin (Odin-Sam1) (human) (UniProt Q92625); test: ITC
# [2] = molecular target: Sam domain of the EphA2 receptor (EphA2-Sam), wild type (human) (UniProt P29317); test: SPR
Molecule,Kd [1],stoichiometry N [1],Kd [2]
"Sam domain of the EphA2 receptor (EphA2-Sam), wild type (from UniProt P29317 902-976) (domain or fragment)",0.62 µM,1,–
B1,–,–,5.5 µM
